B1: ZNF232 (parent)
chain: HSGEKPFICKECGKAYGWCSELIR
B2: FUT8 (parent)
chain: YPSYKVREKIETVKYPTYPEAEK

Variants of: B1
Test: protein stability index of a GFP-peptide fusion (GPS, HEK-293T) (PSI 1-6); higher = more stable
Details: c terminus: a fixed tail appended
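Further: lentivirally expressed fusions sorted by FACS into six bins by GFP to DsRed ratio, PSI derived from sequencing read proportions per bin multiplied by bin number.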

| Variant | protein stability index |
| --- | --- |
| HSGSKPFICKECGKAYGWCSELIR [E4S] | 2.52 |
| HSGRKPFICKECGKAYGWCSELIR [E4R] | 1.6 |
| HSGHKPFICKECGKAYGWCSELIR [E4H] | 2.17 |
| HSGNKPFICKECGKAYGWCSELIR [E4N] | 1.95 |
| HSGIKPFICKECGKAYGWCSELIR [E4I] | 1.27 |
| HSGKKPFICKECGKAYGWCSELIR [E4K] | 1.54 |
| HSGLKPFICKECGKAYGWCSELIR [E4L] | 2.76 |
| HSGFKPFICKECGKAYGWCSELIR [E4F] | 1.37 |
| HSGQKPFICKECGKAYGWCSELIR [E4Q] | 1.53 |
| HSGPKPFICKECGKAYGWCSELIR [E4P] | 2.22 |
| HSGGKPFICKECGKAYGWCSELIR [E4G] | 1.71 |
| HSGAKPFICKECGKAYGWCSELIR [E4A] | 1.55 |
| HSGMKPFICKECGKAYGWCSELIR [E4M] | 1.46 |
| HSGCKPFICKECGKAYGWCSELIR [E4C] | 1.9 |
| HSGDKPFICKECGKAYGWCSELIR [E4D] | 1.91 |
| HSCEKPFICKECGKAYGWCSELIR [G3C] | 2.5 |
| HSPEKPFICKECGKAYGWCSELIR [G3P] | 2.22 |
| HSTEKPFICKECGKAYGWCSELIR [G3T] | 2.07 |
| HSREKPFICKECGKAYGWCSELIR [G3R] | 1.61 |
| HSDEKPFICKECGKAYGWCSELIR [G3D] | 2.32 |
| HSKEKPFICKECGKAYGWCSELIR [G3K] | 1.99 |
| HSFEKPFICKECGKAYGWCSELIR [G3F] | 2.13 |
| HSQEKPFICKECGKAYGWCSELIR [G3Q] | 1.97 |
| HSYEKPFICKECGKAYGWCSELIR [G3Y] | 1.88 |

| Variant | protein stability index |
| --- | --- |
| HSIEKPFICKECGKAYGWCSELIR [G3I] | 1.87 |
| HSAEKPFICKECGKAYGWCSELIR [G3A] | 1.86 |
| HSEEKPFICKECGKAYGWCSELIR [G3E] | 2.29 |
| HSVEKPFICKECGKAYGWCSELIR [G3V] | 2 |
| HSWEKPFICKECGKAYGWCSELIR [G3W] | 1.86 |
| HSLEKPFICKECGKAYGWCSELIR [G3L] | 1.57 |
| HSMEKPFICKECGKAYGWCSELIR [G3M] | 2.49 |
| HSSEKPFICKECGKAYGWCSELIR [G3S] | 2.14 |
| HSNEKPFICKECGKAYGWCSELIR [G3N] | 2.07 |
| HSHEKPFICKECGKAYGWCSELIR [G3H] | 1.47 |
| HMGEKPFICKECGKAYGWCSELIR [S2M] | 2.07 |
| HRGEKPFICKECGKAYGWCSELIR [S2R] | 1.64 |
| HKGEKPFICKECGKAYGWCSELIR [S2K] | 1.74 |
| HNGEKPFICKECGKAYGWCSELIR [S2N] | 2.58 |
| HLGEKPFICKECGKAYGWCSELIR [S2L] | 2.4 |
| HCGEKPFICKECGKAYGWCSELIR [S2C] | 2.12 |
| HVGEKPFICKECGKAYGWCSELIR [S2V] | 1.84 |
| HIGEKPFICKECGKAYGWCSELIR [S2I] | 2.21 |
| HAGEKPFICKECGKAYGWCSELIR [S2A] | 1.7 |
| HEGEKPFICKECGKAYGWCSELIR [S2E] | 2.35 |
| HFGEKPFICKECGKAYGWCSELIR [S2F] | 2.87 |
| HTGEKPFICKECGKAYGWCSELIR [S2T] | 1.76 |
| HPGEKPFICKECGKAYGWCSELIR [S2P] | 2.33 |
| HGGEKPFICKECGKAYGWCSELIR [S2G] | 2.12 |

| Variant | protein stability index |
| --- | --- |
| HWGEKPFICKECGKAYGWCSELIR [S2W] | 1.68 |
| HQGEKPFICKECGKAYGWCSELIR [S2Q] | 2.04 |
| HHGEKPFICKECGKAYGWCSELIR [S2H] | 1.91 |
| HDGEKPFICKECGKAYGWCSELIR [S2D] | 2.51 |
| HYGEKPFICKECGKAYGWCSELIR [S2Y] | 1.81 |
| ESGEKPFICKECGKAYGWCSELIR [H1E] | 2.4 |
| CSGEKPFICKECGKAYGWCSELIR [H1C] | 1.61 |
| FSGEKPFICKECGKAYGWCSELIR [H1F] | 2.76 |
| QSGEKPFICKECGKAYGWCSELIR [H1Q] | 2.32 |
| PSGEKPFICKECGKAYGWCSELIR [H1P] | 2.37 |
| ASGEKPFICKECGKAYGWCSELIR [H1A] | 1.89 |
| LSGEKPFICKECGKAYGWCSELIR [H1L] | 1.9 |
| MSGEKPFICKECGKAYGWCSELIR [H1M] | 1.16 |
| NSGEKPFICKECGKAYGWCSELIR [H1N] | 2.15 |
| VSGEKPFICKECGKAYGWCSELIR [H1V] | 1.88 |
| KSGEKPFICKECGKAYGWCSELIR [H1K] | 2.12 |
| ISGEKPFICKECGKAYGWCSELIR [H1I] | 2.21 |
| SSGEKPFICKECGKAYGWCSELIR [H1S] | 2.33 |
| TSGEKPFICKECGKAYGWCSELIR [H1T] | 1.82 |
| GSGEKPFICKECGKAYGWCSELIR [H1G] | 2.55 |
| WSGEKPFICKECGKAYGWCSELIR [H1W] | 1.81 |
| DSGEKPFICKECGKAYGWCSELIR [H1D] | 2.31 |
| YSGEKPFICKECGKAYGWCSELIR [H1Y] | 2.28 |
| RSGEKPFICKECGKAYGWCSELIR [H1R] | 2.45 |

Variants of: B2
Test: as above
Details: c terminus: native

| Variant | protein stability index |
| --- | --- |
| YPSYKVREKIETVKYPWYPEAEK [T17W] | 1.94 |
| YPSYKVREKIETVKYPYYPEAEK [T17Y] | 2.87 |
| YPSYKVREKIETVKYPQYPEAEK [T17Q] | 4.3 |
| YPSYKVREKIETVKYPMYPEAEK [T17M] | 3.77 |
| YPSYKVREKIETVKYPPYPEAEK [T17P] | 4.46 |
| YPSYKVREKIETVKYPVYPEAEK [T17V] | 4 |
| YPSYKVREKIETVKYPLYPEAEK [T17L] | 3.6 |
| YPSYKVREKIETVKYPNYPEAEK [T17N] | 4.75 |
| YPSYKVREKIETVKYPSYPEAEK [T17S] | 4.79 |
| YPSYKVREKIETVKYPRYPEAEK [T17R] | 4.34 |
| YPSYKVREKIETVKYPTYPEEEK [A21E] | 4.97 |
| YPSYKVREKIETVKYPTYPECEK [A21C] | 3.74 |
| YPSYKVREKIETVKYPTYPEYEK [A21Y] | 3.67 |
| YPSYKVREKIETVKYPTYPEFEK [A21F] | 4.18 |
| YPSYKVREKIETVKYPTYPETEK [A21T] | 3.67 |
| YPSYKVREKIETVKYPTYPEGEK [A21G] | 4.29 |
| YPSYKVREKIETVKYPTYPEIEK [A21I] | 3.85 |
| YPSYKVREKIETVKYPTYPEVEK [A21V] | 3.89 |
| YPSYKVREKIETVKYPTYPEWEK [A21W] | 4.21 |
| YPSYKVREKIETVKYPTYPEHEK [A21H] | 4.56 |
| YPSYKVREKIETVKYPTYPELEK [A21L] | 3.38 |
| YPSYKVREKIETVKYPTYPEREK [A21R] | 3.43 |
| YPSYKVREKIETVKYPTYPEKEK [A21K] | 3.26 |
| YPSYKVREKIETVKYPTYPESEK [A21S] | 4.1 |
